B1: m302 IgG1 (antibody, V domains shown)
VH: EVQLVQSGGGLVKPGRSLRLSCAASGFTFSSYAMHWVRQAPGKGLEWVAVISYDGSNKYYADSVKGRFTISRDNSKNTLYLQMNSLRAEDTAVYYCAREIGDYYYYGMDVWGQGTLVTVSS
VL: EIVMTQSPATLSLSPGERATLSCRASQSVSSYLAWYQQKPGQAPRLLIYDASNRATGIPARFSGSGSGTDFTLTISSLQPEDFATYYCQQSYSTPLTFGGGTKVEIK
notes: also called m302 mAb; IgG m302; source: Expi293, transient, purified (protein G)
B2: m301 IgG1 (antibody, V domains shown)
VH: EVQLVQSGGGLVKPGGSLRLSCAASGFTFSSYGMHWVRQAPGKGLEWVAVISYDGSNKYYADSVKGRFTISRDNSKNTLYLQMNSLRAEDTAVYYCAKEVGRSYFDYWGQGTLVTVSS
VL: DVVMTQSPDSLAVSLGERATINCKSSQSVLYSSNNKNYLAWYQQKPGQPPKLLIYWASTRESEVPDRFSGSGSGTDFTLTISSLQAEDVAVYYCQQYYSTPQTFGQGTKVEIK
notes: also called m301 mAb; IgG m301; source: Expi293, transient, purified (protein G)

Molecular target: T1, ZIKV envelope protein domain III-hFc fusion protein (ZIKV-DIII-hFc) (Zika virus strain MR766, UniProt Q32ZE1)
T1 construct: source: 293 FreeStyle, transient, purified from conditioned culture medium
Test: BLI; Octet-Red96, 37 °C; […] (30 μg/mL, sodium acetate pH 5.0) […]; association 300 s, dissociation 1500 s; 1:1 Langmuir model; […]
Details: both partners purified

Row | Binder | Kd [nM] | koff [s⁻¹]
1 | B1 | 47 | 0.002
2 | B2 | 0.2 | 4e-05
